Test results as given in patent publication US20240301038A1 (ATRECA, published 2024).

Target: SARS-CoV-2 Spike S1 subunit (Sino Biological) (SARS-CoV-2, UniProt P0DTC2 16-685)

B1: AB-009760 (antibody, V domains shown)
VH: EVQLVQSGAEVKKPGESLKISCKGSGYSFTSYWIGWVRQMPGKGLEWMGIIYPGDSDTRYSPSFQGQVTISADKSISTAYLQWSSLKASDTAMYYCARSRSSDYFDYWGQGTLVTVSS
VL: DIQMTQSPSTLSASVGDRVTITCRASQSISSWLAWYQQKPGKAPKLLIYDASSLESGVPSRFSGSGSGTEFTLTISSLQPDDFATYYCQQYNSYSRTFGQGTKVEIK
Question: With B1 as the binder, how does the kon read?
Answer: 64100 M⁻¹ s⁻¹

B2: AB-009270 (antibody, V domains shown)
VH: QMQLVQSGPEVKKPGTSVKVSCKASGFTFTSSAMQWVRQARGQRLEWIGWIVVGSGNTNYAQKFQERVTITRDMSTSTAYMELSSLRSEDTAVYYCAVNYCSSTSCYDAFDIWGQGTMVTVSS
VL: not shown
Question: What does the source list for B2?
Answer: koff: 0.000208 s⁻¹; kon: 69000 M⁻¹ s⁻¹
